Legend:
[1] = target: T1, recombinant full-length human 2N/3R tau (human, UniProt P10636 2-758); test: immunoblot of recombinant tau proteins
T1 construct: Expressed in E. coli from pRK172 and purified; also called 3-repeat tau

[2] = target: T2, recombinant full-length human 2N/4R tau (human, UniProt P10636 2-758); test: immunoblot of recombinant tau proteins
T2 construct: Expressed in E. coli from pRK172 and purified; also called 4-repeat tau

[3] = target: T3, human 1N4R tau with the P301S mutation (expressed in PS19 tau transgenic mice) (human, UniProt P10636 1-758); test: immunoblot of total mouse brain lysates
T3 construct: Tested in total brain lysates (immunoblot) and spinal cord sections (immunohistochemistry) of PS19 mice; also called human tau in PS19 mice; over-expressed 1N4R human tau in PS19 brain
T3 sequence (P10636 other isoform, or with tags, fused parts or gaps P301S P301S limits assumed): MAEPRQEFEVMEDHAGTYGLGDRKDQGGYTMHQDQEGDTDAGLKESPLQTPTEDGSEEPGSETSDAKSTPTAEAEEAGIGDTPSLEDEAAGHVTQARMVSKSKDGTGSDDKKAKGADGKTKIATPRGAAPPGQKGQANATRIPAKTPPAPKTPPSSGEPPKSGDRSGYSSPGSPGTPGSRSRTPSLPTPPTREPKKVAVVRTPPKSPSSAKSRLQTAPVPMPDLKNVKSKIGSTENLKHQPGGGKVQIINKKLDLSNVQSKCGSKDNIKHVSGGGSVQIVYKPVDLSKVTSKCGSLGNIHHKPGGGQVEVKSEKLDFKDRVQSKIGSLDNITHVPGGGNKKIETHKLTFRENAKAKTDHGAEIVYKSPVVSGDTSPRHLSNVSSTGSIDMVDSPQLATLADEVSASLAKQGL
Method: Preparation of total mouse brain protein lysates Tau KO, PS19 Tg or NTg mice were euthanized by CO₂ inhalation and the brains were harvested. Brain tissue was homogenized in 2% SDS/50 mM Tris, pH 7.5 using a probe sonicator and then incubated for 10 min at 100° C. Protein concentrations were determined by BCA assay using BSA as the standard. Sample buffer was added and equal amounts of protein (10 μg) were resolved by SDS-PAGE and analyzed by immunoblot.
To assess the selectivity of these antibodies for human tau, immunoblots of total mouse brain lysates from tau KO, NTg and PS19 tau Tg mice were probed with these antibodies (FIG. 3). All of these antibodies detected human tau in whole brain lysates from PS19 mice. Antibodies 81A11, 83E4 and 94-3A2-2 reacted weakly with endogenous tau in NTg mice. […] All the antibodies were specific for tau as shown using the lysates from tau KO mice. A non-specific band at approximately 30 kDa present in all the lysates was attributed to non-specific binding of the secondary antibody shown with an immunoblot probed only with secondary antibody.

[4] = target: T4, human 0N4R tau with the P301L mutation (expressed in JNPL3 tau transgenic mice) (human, UniProt P10636 1-758); test: immunohistochemistry of spinal cord sections
T4 construct: Tested as inclusions in spinal cord sections of JNPL3 mice; also called tau inclusions of JNPL3 mice
T4 sequence (P10636 other isoform, or with tags, fused parts or gaps P301L P301L limits assumed): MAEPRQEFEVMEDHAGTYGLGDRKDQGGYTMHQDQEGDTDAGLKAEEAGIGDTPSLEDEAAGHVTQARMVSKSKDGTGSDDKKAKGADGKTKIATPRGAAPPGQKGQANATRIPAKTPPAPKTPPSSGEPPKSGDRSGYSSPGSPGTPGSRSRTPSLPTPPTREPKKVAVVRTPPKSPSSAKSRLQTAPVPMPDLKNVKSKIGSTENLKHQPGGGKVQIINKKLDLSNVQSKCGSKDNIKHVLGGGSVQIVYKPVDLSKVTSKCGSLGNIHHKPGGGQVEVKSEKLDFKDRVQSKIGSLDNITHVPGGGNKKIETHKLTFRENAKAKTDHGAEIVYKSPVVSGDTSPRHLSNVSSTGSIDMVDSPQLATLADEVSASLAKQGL
Method: Paraffin embedded tissues from JNPL3 tau transgenic, PS19 tau-transgenic and non-transgenic (NTg) mice were used. All paraffin embedded, formalin fixed human brain tissues from de-identified donors were obtained through a human brain tissue bank. Sequential tissue sections were deparaffinized with xylenes and sequentially rehydrated with graded ethanol solutions (100-70%). Antigen retrieval was performed by incubating sections in a steam bath for 30 minutes. Endogenous peroxidase activity was quenched with 1.5% hydrogen peroxide/0.005% Triton-X-100/Tris-buffered Saline (TBS) for 20 minutes. Sections were blocked with 2.5% horse serum then incubated overnight at 4° C. with primary antibody. Following washing with TBS, sections were incubated with Vector ImmPress anti-mouse IgG peroxidase (Vector Laboratories, Burlingame, Calif., USA) for 30 minutes. Sections were washed with TBS and then developed with 3, 3′diaminobenzidine (DAB kit; Vector Laboratories). Reactions were stopped by immersing the slides in TBS and sections were counterstained with Mayer's hematoxylin (Sigma Aldrich, St. Louis, Mo.). Next, sections were dehydrated with an ascending series of ethanol solutions (70%-100%) followed by xylenes and coverslipped using cytoseal (Thermo Scientific, Waltham, Mass.).
Each of the 83E4, 94-3A2-2, 94-3A6 and 94-4F1 binds R4 and can recognize 3- and 4-repeat tau. […]

[5] = target: T5, recombinant glutathione S-transferase (GST) tagged human tau MTBD R4 (human); test: summary of immunoblots of GST-tagged MTBD fragments
T5 construct: Expressed in E. coli; total bacterial lysates were blotted after SDS-PAGE; also called GST/R4; not shown: glutathione S-transferase (GST) tag encoded by bacterial expression plasmid pGEX-2T; junction
T5 chain: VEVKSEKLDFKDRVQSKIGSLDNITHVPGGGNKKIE
From the text: For the generation of recombinant glutathione S-transferases (GST) tagged human MTBD R1-3 (residues 244-336 relative to ON/4R tau), R1 (residues 244-274 relative to ON/4R tau), R3 (residues 306-336 relative to ON/4R tau) and R4 (residues 337-372 relative to ON/4R tau) proteins, the corresponding cDNA sequences were amplified by PCR with the respective oligonucleotides with added BamHI and EcoRI restriction sites and cloned in these sites of bacterial expression plasmid pGEX-2T. These proteins were expressed in E. coli BL21 (DE3)/RIL with isopropyl β-D-1-thiogalactopyranoside induction. The bacteria were lysed with 2% SDS and following the addition of SDS sample buffer equal amounts of total bacterial lysates were resolved by SDS-PAGE and analyzed by immunoblotting.
Mice were immunized with the synthetic peptides corresponding to the MTBD in 4R human tau 244-372 (K18) conjugated to 21-140 αS at the N-terminus or 21-140 αS at the N-terminus and Aβ1-42 at the C-terminus. […] This selectivity for tau was also confirmed by detection of tau pathology by immunohistochemistry of human AD post-mortem brain tissue with abundant tau pathology. […] The specificity of these monoclonal antibodies was further determined by probing immunoblots of recombinant full-length human 2N/3R and 2N/4R tau and K18 (4R) tau fragment (FIG. 2). […]

[6] = target: Aβ (UniProt P05067 672-713); test: ELISA screening of hybridoma media on coated peptide
Aβ, sequence (P05067 672-713): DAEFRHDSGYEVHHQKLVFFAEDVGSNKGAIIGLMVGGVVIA
Method: (§1) All hybridoma clones were screened for reactivity to K18 by enzyme-linked immunosorbent assay (ELISA). MaxiSorp plates (Thermo Scientific, Waltham, Mass.) or Immulon 4HBX plates (ThermoFisher Scientific, Waltham, Mass.) were coated with 1 μg/ml human recombinant tau or αS proteins or Aβ in PBS or 100 mM sodium bicarbonate and blocked with 5% FBS/PBS or 1% Block ACE in PBS. Media from the hybridomas were applied to plates, which were then incubated at room temperature for 3 hours. Next, the plates were washed with PBS and incubated with goat anti-mouse secondary antibody conjugated to horse radish peroxidase (HRP; Jackson Immuno Research Labs, West Grove, Pa.) for 1 hour at room temperature. Then, plates were washed and TMB substrates (Pierce, Rockford, Ill.) were applied until color changes were observed. Reactions were then quenched with 1M HCl or 85% 0-Phosphoric acid and absorbance was measured at 450 nm. Clones that were positive by ELISA were transferred to larger culture plates as needed. […]
(§2) Mice were immunized with the synthetic peptides corresponding to the MTBD in 4R human tau 244-372 (K18) conjugated to 21-140 αS at the N-terminus or 21-140 αS at the N-terminus and Aβ1-42 at the C-terminus. […] The specificity of these monoclonal antibodies was further determined by probing immunoblots of recombinant full-length human 2N/3R and 2N/4R tau and K18 (4R) tau fragment (FIG. 2). […]

[7] = target: recombinant human α-synuclein (human, UniProt P37840 1-140); test: ELISA screening of hybridoma media on coated protein
Method: as §1, §2

T2 sequence (P10636 other isoform, or with tags, fused parts or gaps limits assumed): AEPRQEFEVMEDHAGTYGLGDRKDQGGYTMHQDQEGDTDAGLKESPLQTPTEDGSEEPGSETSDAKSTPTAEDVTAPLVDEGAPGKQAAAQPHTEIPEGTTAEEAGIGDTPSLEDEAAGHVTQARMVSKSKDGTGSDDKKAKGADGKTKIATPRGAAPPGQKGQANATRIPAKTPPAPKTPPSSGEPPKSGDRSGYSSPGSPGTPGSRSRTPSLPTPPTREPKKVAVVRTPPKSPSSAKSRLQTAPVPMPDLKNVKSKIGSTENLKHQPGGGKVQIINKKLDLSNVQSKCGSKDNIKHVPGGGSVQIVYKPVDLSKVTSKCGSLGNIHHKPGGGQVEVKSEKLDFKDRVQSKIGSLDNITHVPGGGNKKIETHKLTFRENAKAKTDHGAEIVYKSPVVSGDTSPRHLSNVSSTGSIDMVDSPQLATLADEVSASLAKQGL
T1 sequence (P10636 other isoform, or with tags, fused parts or gaps limits assumed): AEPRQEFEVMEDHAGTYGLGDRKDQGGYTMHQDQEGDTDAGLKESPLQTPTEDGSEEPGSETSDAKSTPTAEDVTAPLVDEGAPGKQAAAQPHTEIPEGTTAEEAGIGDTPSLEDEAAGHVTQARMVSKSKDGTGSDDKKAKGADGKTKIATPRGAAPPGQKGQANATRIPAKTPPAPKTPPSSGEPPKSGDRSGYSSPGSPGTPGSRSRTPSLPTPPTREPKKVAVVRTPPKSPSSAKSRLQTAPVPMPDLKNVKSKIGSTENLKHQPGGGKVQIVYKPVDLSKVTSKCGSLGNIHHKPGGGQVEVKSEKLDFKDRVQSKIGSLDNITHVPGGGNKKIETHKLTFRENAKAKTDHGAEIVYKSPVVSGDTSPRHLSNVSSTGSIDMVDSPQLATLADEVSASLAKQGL

B1: monoclonal antibody 94-3A2-2 (antibody, V domains shown)
VH: QVQLQQSGAELAKPGASVKMSCKASGYTFTTYWMHWIKQRPGQGLEWIGYINPSNDYTEYNQKFKDEATLTVDKSSSTAYMQLNSLISEDSAVYYCAHPAYWGQGTLVTVSS
VL: ENVLTQSPAIMSASPGEKVTMTCSASSSVNYMHWYQQKSGTSPKLWIYDTSKLASGVPGRFSGSGSGNSYSLTISSMEAEDVATYYCFQGSGYPFTFGSGTKLEIKR
[1]
  binding result: binds
[2]
  binding result: binds
[3]
  binding result: binds
[4]
  binding result: binds
[5]
  binding result: binds
[6]
  binding result: no binding
[7]
  binding result: no binding

B2: monoclonal antibody 94-3A6 (antibody, V domains shown)
VH: QVQLQQPGTELVKPGASVKLSCKASGYPFTNYWMHWVKQRPGQGLEWIGNINPTNGDTNYNEKFKSKATLTVDKSSSTAYMQLSSLTSEDSAVYYCTRVTYWGQGTTLTVSS
VL: ENVLTQSPAIMSASPGEKVTMTCSASSNVNYMHWFQQESSTSPKLWIYDTSKLASGVPGRFSGSGSGNSYSLTISSMEAEDVATYYCFQGSGYPYTFGGGTKLEIKR
[1]
  binding result: binds
[2]
  binding result: binds
[3]
  binding result: binds
[4]
  binding result: binds
[5]
  binding result: binds
[6]
  binding result: no binding
[7]
  binding result: no binding
